According to the Human Domainome abundance scans (Beltran et al. 2025):
± gives the uncertainty stated by the source.

B1: Nucleosome-remodeling factor subunit BPTF, residues 2862 to 2918; numbered along this chain, Q12830 (parent)
chain: TKKDTKLYCICKTPYDESKFYIGCDRCQNWYHGRCVGILQSEAELIDEYVCPQCQST

Variants of: B1
Assay: abundance fitness (aPCA) (normalised: wild type 0, dead -1); higher = more abundant; growth selection in yeast, the domain comes from the species named
Details: Homo sapiens

In order of falling abundance fitness:
1. TKKDTKLYCICKTPYDESKFYIGCDRCQNKYHGRCVGILQSEAELIDEYVCPQCQST  0.163 ± 0.1
2. TKKDTKLYCICKTPYDESKFYIGCDRCQNRYHGRCVGILQSEAELIDEYVCPQCQST  0.142 ± 0.076
3. TKKDTKLYCICKTPYDESKFYIGCDRCQNLYHGRCVGILQSEAELIDEYVCPQCQST  0.127 ± 0.075
4. TKKDTKLYCICKTPYDESKFYIGCDRCCNWYHGRCVGILQSEAELIDEYVCPQCQST  0.126 ± 0.12
5. TKKDTKLYCICKTPYDESKFYIGCDRCQNFYHGRCVGILQSEAELIDEYVCPQCQST  0.115 ± 0.13
6. TKKDTKLYCICKTPYDESKFYIGCDRCQNTYHGRCVGILQSEAELIDEYVCPQCQST  0.095 ± 0.099
7. TKKDTKLYCICKTPYDESKFYIGCDRCQNAYHGRCVGILQSEAELIDEYVCPQCQST  0.09 ± 0.078
8. TKKDTKLYCICKTPYDESKFYIGCDRCQQWYHGRCVGILQSEAELIDEYVCPQCQST  0.089 ± 0.15
9. TKKDTKLYCICKTPYDESKFYIGCDRCKNWYHGRCVGILQSEAELIDEYVCPQCQST  0.084 ± 0.1
10. TKKDTKLYCICKTPYDESKFYIGCDRCQNYYHGRCVGILQSEAELIDEYVCPQCQST  0.083 ± 0.12
11. TKKDTKLYCICKTPYDESKFYIGCDRCQAWYHGRCVGILQSEAELIDEYVCPQCQST  0.06 ± 0.2
12. TKKDTKLYCICKTPYDESKFYIGCDRCSNWYHGRCVGILQSEAELIDEYVCPQCQST  0.048 ± 0.068
13. TKKDTKLYCICKTPYDESKFYIGCDRCQNMYHGRCVGILQSEAELIDEYVCPQCQST  0.037 ± 0.1
14. TKKDTKLYCICKTPYDESKFYIGCDRCQNWFHGRCVGILQSEAELIDEYVCPQCQST  0.01 ± 0.081
15. TKKDTKLYCICKTPYDESKFYIGCDRCHNWYHGRCVGILQSEAELIDEYVCPQCQST  0.009 ± 0.11
16. TKKDTKLYCICKTPYDESKFYIGCDRCQNHYHGRCVGILQSEAELIDEYVCPQCQST  0.004 ± 0.1
17. TKKDTKLYCICKTPYDESKFYIGCDRCQNWYHARCVGILQSEAELIDEYVCPQCQST  -0.007 ± 0.064
18. TKKDTKLYCICKTPYDESKFYIGCDRCQNSYHGRCVGILQSEAELIDEYVCPQCQST  -0.009 ± 0.081
19. TKKDTKLYCICKTPYDESKFYIGCDRCGNWYHGRCVGILQSEAELIDEYVCPQCQST  -0.028 ± 0.094
20. TKKDTKLYCICKTPYDESKFYIGCDRCQNIYHGRCVGILQSEAELIDEYVCPQCQST  -0.033 ± 0.1
21. TKKDTKLYCICKTPYDESKFYIGCDRCQSWYHGRCVGILQSEAELIDEYVCPQCQST  -0.047 ± 0.074
22. TKKDTKLYCICKTPYDESKFYIGCDRCQRWYHGRCVGILQSEAELIDEYVCPQCQST  -0.061 ± 0.071
23. TKKDTKLYCICKTPYDESKFYIGCDRCQHWYHGRCVGILQSEAELIDEYVCPQCQST  -0.062 ± 0.11
24. TKKDTKLYCICKTPYDESKFYIGCDRCQVWYHGRCVGILQSEAELIDEYVCPQCQST  -0.064 ± 0.13
25. TKKDTKLYCICKTPYDESKFYIGCDRCQGWYHGRCVGILQSEAELIDEYVCPQCQST  -0.068 ± 0.12
26. TKKDTKLYCICKTPYDESKFYIGCDRCENWYHGRCVGILQSEAELIDEYVCPQCQST  -0.072 ± 0.15
27. TKKDTKLYCICKTPYDESKFYIGCDRCDNWYHGRCVGILQSEAELIDEYVCPQCQST  -0.079 ± 0.12
28. TKKDTKLYCICKTPYDESKFYIGCDRCTNWYHGRCVGILQSEAELIDEYVCPQCQST  -0.081 ± 0.081
29. TKKDTKLYCICKTPYDESKFYIGCDRCRNWYHGRCVGILQSEAELIDEYVCPQCQST  -0.081 ± 0.073
30. TKKDTKLYCICKTPYDESKFYIGCDRCMNWYHGRCVGILQSEAELIDEYVCPQCQST  -0.096 ± 0.082
31. TKKDTKLYCICKTPYDESKFYIGCDRCQNDYHGRCVGILQSEAELIDEYVCPQCQST  -0.097 ± 0.14
32. TKKDTKLYCICKTPYDESKFYIGCDRCQMWYHGRCVGILQSEAELIDEYVCPQCQST  -0.1 ± 0.21
33. TKKDTKLYCICKTPYDESKFYIGCDRCQNGYHGRCVGILQSEAELIDEYVCPQCQST  -0.116 ± 0.09
34. TKKDTKLYCICKTPYDESKFYIGCDRCQNCYHGRCVGILQSEAELIDEYVCPQCQST  -0.123 ± 0.14
35. TKKDTKLYCICKTPYDESKFYIGCDRCQKWYHGRCVGILQSEAELIDEYVCPQCQST  -0.124 ± 0.12
36. TKKDTKLYCICKTPYDESKFYIGCDRCNNWYHGRCVGILQSEAELIDEYVCPQCQST  -0.133 ± 0.12
37. TKKDTKLYCICKTPYDESKFYIGCDRCANWYHGRCVGILQSEAELIDEYVCPQCQST  -0.14 ± 0.094
38. TKKDTKLYCICKTPYDESKFYIGCDRCQNPYHGRCVGILQSEAELIDEYVCPQCQST  -0.155 ± 0.099
39. TKKDTKLYCICKTPYDESKFYIGCDRCQNNYHGRCVGILQSEAELIDEYVCPQCQST  -0.159 ± 0.1
40. TKKDTKLYCICKTPYDESKFYIGCDRCQTWYHGRCVGILQSEAELIDEYVCPQCQST  -0.191 ± 0.09
41. TKKDTKLYCICKTPYDESKFYIGCDRCPNWYHGRCVGILQSEAELIDEYVCPQCQST  -0.193 ± 0.088
42. TKKDTKLYCICKTPYDESKFYIGCDRCQLWYHGRCVGILQSEAELIDEYVCPQCQST  -0.198 ± 0.099
43. TKKDTKLYCICKTPYDESKFYIGCDRCQNWCHGRCVGILQSEAELIDEYVCPQCQST  -0.206 ± 0.094
44. TKKDTKLYCICKTPYDESKFYIGCDRCFNWYHGRCVGILQSEAELIDEYVCPQCQST  -0.221 ± 0.1
45. TKKDTKLYCICKTPYDESKFYIGCDRCWNWYHGRCVGILQSEAELIDEYVCPQCQST  -0.236 ± 0.11
46. TKKDTKLYCICKTPYDESKFYIGCDRCQNWLHGRCVGILQSEAELIDEYVCPQCQST  -0.279 ± 0.064
47. TKKDTKLYCICKTPYDESKFYIGCDRCQFWYHGRCVGILQSEAELIDEYVCPQCQST  -0.307 ± 0.11
48. TKKDTKLYCICKTPYDESKFYIGCDRCQEWYHGRCVGILQSEAELIDEYVCPQCQST  -0.328 ± 0.29
49. TKKDTKLYCICKTPYDESKFYIGCDRCQNWVHGRCVGILQSEAELIDEYVCPQCQST  -0.341 ± 0.066
50. TKKDTKLYCICKTPYDESKFYIGCDRCINWYHGRCVGILQSEAELIDEYVCPQCQST  -0.342 ± 0.11
51. TKKDTKLYCICKTPYDESKFYIGCDRCQCWYHGRCVGILQSEAELIDEYVCPQCQST  -0.353 ± 0.096
52. TKKDTKLYCICKTPYDESKFYIGCDRCQYWYHGRCVGILQSEAELIDEYVCPQCQST  -0.376 ± 0.11
53. TKKDTKLYCICKTPYDESKFYIGCDRCQNWMHGRCVGILQSEAELIDEYVCPQCQST  -0.412 ± 0.088
54. TKKDTKLYCICKTPYDESKFYIGCDRCQIWYHGRCVGILQSEAELIDEYVCPQCQST  -0.431 ± 0.11
55. TKKDTKLYCICKTPYDESKFYIGCDRCQNWWHGRCVGILQSEAELIDEYVCPQCQST  -0.527 ± 0.09
56. TKKDTKLYCICKTPYDESKFYIGCDRCQNWNHGRCVGILQSEAELIDEYVCPQCQST  -0.573 ± 0.11
57. TKKDTKLYCICKTPYDESKFYIGCDRCQNWHHGRCVGILQSEAELIDEYVCPQCQST  -0.592 ± 0.13
58. TKKDTKLYCICKTPYDESKFYIGCDRCQNWKHGRCVGILQSEAELIDEYVCPQCQST  -0.649 ± 0.11
59. TKKDTKLYCICKTPYDESKFYIGCDRNQNWYHGRCVGILQSEAELIDEYVCPQCQST  -0.674 ± 0.19
60. TKKDTKLYCICKTPYDESKFYIGCDRCQNWSHGRCVGILQSEAELIDEYVCPQCQST  -0.693 ± 0.076
61. TKKDTKLYCICKTPYDESKFYIGCDRCQNWQHGRCVGILQSEAELIDEYVCPQCQST  -0.706 ± 0.11
62. TKKDTKLYCICKTPYDESKFYIGCDRCQNWTHGRCVGILQSEAELIDEYVCPQCQST  -0.723 ± 0.095
63. TKKDTKLYCICKTPYDESKFYIGCDRCQNWEHGRCVGILQSEAELIDEYVCPQCQST  -0.772 ± 0.11
64. TKKDTKLYCICKTPYDESKFYIGCDRCQNWPHGRCVGILQSEAELIDEYVCPQCQST  -0.787 ± 0.1
65. TKKDTKLYCICKTPYDESKFYIGCDRCQNWRHGRCVGILQSEAELIDEYVCPQCQST  -0.79 ± 0.082
66. TKKDTKLYCICKTPYDESKFYIGCDRCQNWYSGRCVGILQSEAELIDEYVCPQCQST  -0.797 ± 0.094
67. TKKDTKLYCICKTPYDESKFYIGCDRVQNWYHGRCVGILQSEAELIDEYVCPQCQST  -0.803 ± 0.13
68. TKKDTKLYCICKTPYDESKFYIGCDRCQNWGHGRCVGILQSEAELIDEYVCPQCQST  -0.804 ± 0.079
69. TKKDTKLYCICKTPYDESKFYIGCDRCQNWYRGRCVGILQSEAELIDEYVCPQCQST  -0.808 ± 0.11
70. TKKDTKLYCICKTPYDESKFYIGCDRSQNWYHGRCVGILQSEAELIDEYVCPQCQST  -0.811 ± 0.091
71. TKKDTKLYCICKTPYDESKFYIGCDRMQNWYHGRCVGILQSEAELIDEYVCPQCQST  -0.816 ± 0.1
72. TKKDTKLYCICKTPYDESKFYIGCDRCQNWYGGRCVGILQSEAELIDEYVCPQCQST  -0.831 ± 0.12
73. TKKDTKLYCICKTPYDESKFYIGCDRCQNWYAGRCVGILQSEAELIDEYVCPQCQST  -0.832 ± 0.12
74. TKKDTKLYCICKTPYDESKFYIGCDRYQNWYHGRCVGILQSEAELIDEYVCPQCQST  -0.844 ± 0.15
75. TKKDTKLYCICKTPYDESKFYIGCDRTQNWYHGRCVGILQSEAELIDEYVCPQCQST  -0.871 ± 0.1
76. TKKDTKLYCICKTPYDESKFYIGCDRCQNWYNGRCVGILQSEAELIDEYVCPQCQST  -0.879 ± 0.17
77. TKKDTKLYCICKTPYDESKFYIGCDRCQNWYFGRCVGILQSEAELIDEYVCPQCQST  -0.891 ± 0.11
78. TKKDTKLYCICKTPYDESKFYIGCDRCQNWYQGRCVGILQSEAELIDEYVCPQCQST  -0.898 ± 0.13
79. TKKDTKLYCICKTPYDESKFYIGCDRCQNWYDGRCVGILQSEAELIDEYVCPQCQST  -0.9 ± 0.16
80. TKKDTKLYCICKTPYDESKFYIGCDRWQNWYHGRCVGILQSEAELIDEYVCPQCQST  -0.907 ± 0.097
81. TKKDTKLYCICKTPYDESKFYIGCDRRQNWYHGRCVGILQSEAELIDEYVCPQCQST  -0.915 ± 0.085
82. TKKDTKLYCICKTPYDESKFYIGCDRCQNWYEGRCVGILQSEAELIDEYVCPQCQST  -0.929 ± 0.17
83. TKKDTKLYCICKTPYDESKFYIGCDRCQNWYMGRCVGILQSEAELIDEYVCPQCQST  -0.944 ± 0.13
84. TKKDTKLYCICKTPYDESKFYIGCDRCQNWYPGRCVGILQSEAELIDEYVCPQCQST  -0.95 ± 0.14
85. TKKDTKLYCICKTPYDESKFYIGCDRQQNWYHGRCVGILQSEAELIDEYVCPQCQST  -0.956 ± 0.1
86. TKKDTKLYCICKTPYDESKFYIGCDRCQNWYKGRCVGILQSEAELIDEYVCPQCQST  -0.979 ± 0.15
87. TKKDTKLYCICKTPYDESKFYIGCDRCQNWYYGRCVGILQSEAELIDEYVCPQCQST  -1 ± 0.17
88. TKKDTKLYCICKTPYDESKFYIGCDRCQNWYIGRCVGILQSEAELIDEYVCPQCQST  -1 ± 0.15
89. TKKDTKLYCICKTPYDESKFYIGCDRCQNWDHGRCVGILQSEAELIDEYVCPQCQST  -1.01 ± 0.17
90. TKKDTKLYCICKTPYDESKFYIGCDRCQNWYLGRCVGILQSEAELIDEYVCPQCQST  -1.02 ± 0.085
91. TKKDTKLYCICKTPYDESKFYIGCDRPQNWYHGRCVGILQSEAELIDEYVCPQCQST  -1.08 ± 0.14
92. TKKDTKLYCICKTPYDESKFYIGCDRCQNWYWGRCVGILQSEAELIDEYVCPQCQST  -1.1 ± 0.24
93. TKKDTKLYCICKTPYDESKFYIGCDRCQNWYTGRCVGILQSEAELIDEYVCPQCQST  -1.1 ± 0.13
